From patent US6867016

Molecular target: rabbit anti-CS141 peptide antiserum raised against unconjugated peptide SEQUENCE ID NO 26
Test: competition Western blot; antiserum pre-incubated with varying concentrations of peptide immunogen

concentration of peptide at which antibody binding to the band was inhibited: 2.54 µM
B1: CS141 synthetic peptide SEQUENCE ID NO 26 (peptide)
peptide: GPTMCFEDRMIMSPVKNNVGRGLNIALVNGTTGAVLGQK
